“And” between values parts separate entries of the source, which are not always exact repeats. Equal entries are not always repeated.
B1: YycG-C-His6 (enzyme, Staphylococcus aureus SA137/93A)
chain: MGMKWLKQLQSLHTKLVIVYVLLIIIGMQIIGLYFTNNLEKELLDNFKKNITQYAKQLEISIEKVYDEKGSVNAQKDIQNLLSEYANRQEIGEIRFIDKDQIIIATTKQSNRSLINQKANDSSVQKALSLGQSNDHLILKDYGGGKDRVWVYNIPVKVDKKVIGNIYIESKINDVYNQLNNINQIFIVGTAISLLITVILGFFIARTITKPITDMRNQTVEMSRGNYTQRVKIYGNDEIGELALAFNNLSKRVQEAQANTESEKRRLDSVITHMSDGIIATDRRGRIRIVNDMALKMLGMAKEDIIGYYMLSVLSLEDEFKLEEIQENNDSFLLDLNEEEGLIARVNFSTIVQETGFVTGYIAVLHDVTEQQQVERERREFVANVSHELRTPLTSMNSYIEALEEGAWKDEELAPQFLSVTREETERMIRLVNDLLQLSKMDNESDQINKEIIDFNMFINKIINRHEMSAKDTTFIRDIPKKTIFTEFDPDKMTQVFDNVITNAMKYSRGDKRVEFHVKQNPLYNRMTIRIKDNGIGIPINKVDKIFDRFYRVDKARTRKMGGTGLGLAISKEIVEAHNGRIWANSVEGQGTSIFITLPCEVIEDGDWDE
notes: two additional residues (Met-Gly) at the N-terminus, from the NcoI site placed in frame; Cloned NcoI/XhoI into pET22bΔpelB; also called WalK; VicK; source: E. coli C41(DE3) or C43(DE3) pREP4groESL(MT), purified from the membrane fraction (DDM, Ni-NTA); not shown: His6, C-terminal, kept
B2: YycG(Y306N)-C-His6 (enzyme)
chain: MGMKWLKQLQSLHTKLVIVYVLLIIIGMQIIGLYFTNNLEKELLDNFKKNITQYAKQLEISIEKVYDEKGSVNAQKDIQNLLSEYANRQEIGEIRFIDKDQIIIATTKQSNRSLINQKANDSSVQKALSLGQSNDHLILKDYGGGKDRVWVYNIPVKVDKKVIGNIYIESKINDVYNQLNNINQIFIVGTAISLLITVILGFFIARTITKPITDMRNQTVEMSRGNYTQRVKIYGNDEIGELALAFNNLSKRVQEAQANTESEKRRLDSVITHMSDGIIATDRRGRIRIVNDMALKMLGMAKEDIIGNYMLSVLSLEDEFKLEEIQENNDSFLLDLNEEEGLIARVNFSTIVQETGFVTGYIAVLHDVTEQQQVERERREFVANVSHELRTPLTSMNSYIEALEEGAWKDEELAPQFLSVTREETERMIRLVNDLLQLSKMDNESDQINKEIIDFNMFINKIINRHEMSAKDTTFIRDIPKKTIFTEFDPDKMTQVFDNVITNAMKYSRGDKRVEFHVKQNPLYNRMTIRIKDNGIGIPINKVDKIFDRFYRVDKARTRKMGGTGLGLAISKEIVEAHNGRIWANSVEGQGTSIFITLPCEVIEDGDWDE
notes: two additional residues (Met-Gly) at the N-terminus, from the NcoI site placed in frame; YycG (WalK/VicK) sensor histidine kinase of Staphylococcus aureus with the exchange Y306N (nucleotide exchange T916A) in the cytoplasmic PAS domain; Cloned NcoI/XhoI into pET22bΔpelB; also called mutant kinase; mutated YycG kinase; source: E. coli C41(DE3) or C43(DE3) pREP4groESL(MT), purified from the …

What was measured:
[1] = target: YycI-C-His6 (Staphylococcus aureus SA137/93A); test: native gel or EMSA; blue native PAGE (BN-PAGE) of single proteins; 4-20% Tris-HCl gradient gel; 5 µg of YycF, YycH, YycI or 10 µg of YycG, YycG(Y306N) in 10 µl dialysis buffer I (50 mM NaH2PO4, 300 mM NaCl, 50% glycerol, pH 8) with Coomassie Brilliant Blue R250; 80 V, 4-7°C; masses calibrated with soluble markers and a conversion factor
[2] = target: the molecule itself; test: as above

Molecule	stoichiometry N [1]	stoichiometry N [2]
YycI-C-His6 (natural protein)	< 6	
B1		2 and 3 and 4
B2		2 and 3 and 4

Reference: article PMC3262814, “Purification and Activity Testing of the Full-Length YycFGHI Proteins of Staphylococcus aureus” (PLoS ONE, 2012)
